One series addresses T1, β2AR receptor (Homo sapiens, UniProt P07550).
T1 construct: expressed in transfected cells
Put plainly: BRET assay, β2AR-Rluc / β-arrestin-2-GFP. The series is classed as cell-based. The following applies: β2AR receptor (class A) coexpressed with β-arrestin mutant; versus WT; FIG. 2. The protocol:
(§1) Cell Preparation for BRET Assay: • 1. 48 hrs after transfection with 2 μg receptor-Rluc DNA (e.g. NK1-Rluc or β2AR-Rluc) and 5 μg β-arrestin-2 DNA (e.g. the R393E; R395E mutant) (for assays with GRK also 2 μg GRK DNA, e.g. GRK-5) media was removed and cell washed 1× with PBS • 2. 1 ml 1× trypsin (T75 flask) was added and incubated 3-5 min at 37 C • 3. 10 mL complete media was added. • 4. Cells were transferred to tube and spun down (5 min, 800 rpm) • 5. Media was removed, and cells resuspended in 10 ml PBS and counted, spun down (5 min, 800 rpm) • 6. Resuspended in D-PBS with 1000 mg/l L-Glucose (#14287) to a density of 2×10^6 cells/ml • 7. Cells were left at room temperature for at least 30 min, to stabilize readings.
(§2) Assay: • 1. Dilution of DeepBlueC to 100 μM in 40% ethanol in D-PBS with 1000 mg/l L-Glucose (#14287) (light sensitive!!). The DeepBlueC™ stock solution comprises 1 mM DeepBlueC™ in 100% v/v EtOH.
(§3) The dilution of DeepBlueC in 40% ethanol/buffer is essential for the stability of DeepBlueC. If DeepBlueC is diluted in buffer alone, it will precipitate within 10 to 20 minutes, making it virtually impossible to use the assay in HTS mode. […] 100 μl of resuspended cells were transferred into wells in 96-well white optiplate plate • 3. […] 5 μl of diluted DeepBlueC/well was added, and the plate was read.
(§4) Antagonist: • 1. […] 6 μl of diluted DeepBlueC/well was added, and the plate read.
Background: Bioluminescence resonance energy transfer reports proximity on the nanometre scale.

In the next series the target is T2, NK-1/Rluc receptor (Homo sapiens, UniProt P25103).
T2 construct: expressed in transfected cells; host or cells: COS7
Put plainly: NK-1 receptor internalization assay. The series is classed as cell-based. The following applies: COS7 cells, co-expressed with NK-1/Rluc; 125I-SP 10 min at 37 C; versus WT β-arrestin; FIG. 1. The protocol: COS7 cells in 75 cm^2 flask (3×10^6 cells/flask) were used for transfection. NK-1/Rluc receptor (2 μg cDNA/flask) was coexpressed together with 6 μg GFP/β-arrestin 2, 6 μg GFP^2/β-arrestin R169E, 6 μg GFP^2/β-arrestin Lys 373 stop or 6 μg GFP^2/β-arrestin R393E, R395E. At the end of transfection period (3-5 hours), cells were washed twice with PBS, trypsinased and plated at a density of 2.5×10^5 cells per well in 12-well plates. After 48 hours, cells were washed once with assay medium (HEPES-modified DMEM with 0.1% BSA, pH 7.4) and incubated in assay medium for at least 1 hour before being incubated with ^125I-labeled SP (30000 cpm/well) in 0.5 ml assay medium 10 min at 37 C. Cells were then transferred onto ice and washed twice with ice-cold PBS. Subsequently, the extracellular receptor-associated ligand was removed by washing once with 1 ml of acid solution (50 mM acetic acid and 150 mM NaCl, pH 2.8) for 12 min. The acid wash was collected to determine the surface-bound radioactivity, and the internalized radioactivity was determined after solubilizing the cells in 0.2 M NaOH and 1% SDS (NaOH/SDS) solution. Nonspecific binding for each time point was determined under the same conditions in the presence of 1 μM unlabeled agonist (SP). After subtraction of nonspecific binding, the internalized radioactivity was expressed as a percentage of the total binding.

For the next series, the target named is T3, NK1 receptor (Homo sapiens, UniProt P25103).
T3 construct: expressed in transfected cells
In words: BRET assay, NK1-Rluc / β-arrestin-2-GFP. Type of series: cell-based. The following applies: NK1 receptor (class B) coexpressed with β-arrestin mutant; versus WT; FIG. 2. How it is done: as §1, §2, §3, §4

The target in another series is T4, β2AR/Rluc receptor (Homo sapiens, UniProt P07550).
T4 construct: expressed in transfected cells; host or cells: COS-7
In words: β2AR internalization assay. The series is classed as cell-based. The conditions noted are these: COS-7 cells, co-expressed with β2AR/Rluc; isopterenol 10 min at 37° C; versus WT β-arrestin; FIG. 1. How it is done: COS-7 cells in 75 cm^2 flask (3×10^6 cells/flask) were used for trasfection. β2AR/Rluc receptor (1.3 μg cDNA/flask) was coexpressed together with 6.5 μg GFP^2/β-arrestin 2, 6.5 μg GFP^2/β-arrestin R169E, 6.5 μg GFP^2/β-arrestin Lys 373 stop or 6.5 μg GFP^2/β-arrestin R393E, R395E. Receptor internalization assay was based on protocol described by Barak and Caron J Recept Signal Transduct Res 1995 January-March;15(14):677-90. At the end of transfection period (3-5 hours), cells were washed twice with PBS, trypsinesed and plated at a density of 2.5×10^5 cells per well in 12-well plates. After 48 hours, cells were washed once with assay medium (HEPES-modified DMEM with 0.1% BSA, pH 7.4) and serum-starved in the same medium for additional 2-3 hours before being stimulated with […] isopterenol for 10 min at 37° C. Stimulation was stopped by washing the cells with ice-cold PBS. Cells were then subjected to [^125I]-pindolol binding at 4° C. for 3 h and the fraction of internalized receptors determined relative to unstimulated cells. Non-specific binding was determined under the same conditions in the presence of 1 μM pindolol.

In another series the test system is renilla luciferase. Put plainly: Light emission from renilla luciferase after addition of DeepBlueC solution (FIG. 3). The protocol:
(§5) The dilution of DeepBlueC in 40% ethanol/buffer is essential for the stability of DeepBlueC. If DeepBlueC is diluted in buffer alone, it will precipitate within 10 to 20 minutes, making it virtually impossible to use the assay in HTS mode. […] 100 μl of resuspended cells were transferred into wells in 96-well white optiplate plate • 3. 12 μl agonist was added. • 4. 5 μl of diluted DeepBlueC/well was added, and the plate was read.

A short description of series [1]: Precipitation / stability of diluted DeepBlueC substrate solution. The series is classed as physicochemical. How it is done: One of the problems associated with setting up an assay, such as, e.g. a high through-put screening (HTS) assay, is to prepare a suitable solution of the substrate, DeepBlueC™. If the stock solution of DeepBlueC™ is diluted to the relevant concentration for use in a BRET assay in D-PBS as recommended, it will form a precipitate within 10 to 20 minutes, making it virtually impossible to use for a HTS assay.
as §2, §5

T3 sequence (P25103 whole entry, species assumed): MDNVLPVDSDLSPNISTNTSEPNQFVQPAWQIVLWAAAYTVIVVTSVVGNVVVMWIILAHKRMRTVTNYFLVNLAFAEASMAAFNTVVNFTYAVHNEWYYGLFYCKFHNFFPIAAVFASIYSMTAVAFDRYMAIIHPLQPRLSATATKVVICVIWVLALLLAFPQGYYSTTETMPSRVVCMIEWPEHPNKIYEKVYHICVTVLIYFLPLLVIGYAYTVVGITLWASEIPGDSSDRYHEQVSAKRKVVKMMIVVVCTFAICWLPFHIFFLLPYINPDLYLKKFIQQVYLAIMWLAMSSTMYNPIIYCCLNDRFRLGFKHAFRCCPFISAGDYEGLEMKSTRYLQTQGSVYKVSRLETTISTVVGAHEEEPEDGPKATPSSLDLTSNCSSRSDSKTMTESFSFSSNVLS
T2 sequence (P25103 whole entry): as the sequence (P25103 whole entry, species assumed) above

“human β-arrestin-2 R393E; R395E mutant: human β-arrestin-2 wherein amino acids 393 and 395 have been changed from arginine to glutamic acid; used as GFP fusion”: the “specific BRET ratio (BRET signal)” value in the series with β2AR receptor is reported as “increasing the BRET signal significantly”; with NK1 receptor, “the effect is less pronounced”. Also, in the series with NK-1/Rluc receptor, the “internalization of the NK1-R” value is on record as “inhibiting the internalization”. In the series with β2AR/Rluc receptor, the “internalization of the β2AR” value is reported as “inhibiting the internalization”.

`O=c1c(Cc2ccccc2)nc2c(Cc3ccccc3)[nH]c(-c3ccccc3)cn1-2` [DeepBlueC]: the “stability of light emission signal” value in the series on renilla luciferase (DeepBlueC dissolved in buffer with 0% ethanol) is reported as “rapidly decreases”; with renilla luciferase (DeepBlueC dissolved in buffer with 6% ethanol), “rapidly decreases”; with renilla luciferase (DeepBlueC dissolved in buffer with 40% ethanol), “stable for the duration of the experiment”. Besides, the “stability of diluted solution” value in series [1] (diluted in 40% ethanol in D-PBS with 1000 mg/l L-Glucose) was “stable for hours”. In series [1] (stock solution diluted in D-PBS / buffer alone, no ethanol), the “time to formation of precipitate” value was 10 to 20 min.

Regarding “human β-arrestin-2 373 stop mutant: truncated human β-arrestin-2 lacking clathrin and/or AP2 binding sites; used as GFP fusion”, the “specific BRET ratio (BRET signal)” value with β2AR receptor is “increasing the BRET signal significantly”; with NK1 receptor, “the effect is less pronounced”. Moreover, the “internalization of the NK1-R” value with NK-1/Rluc receptor is recorded as “inhibiting the internalization”. Further, in the series with β2AR/Rluc receptor, the “internalization of the β2AR” value was “inhibiting the internalization”.
